Test results reported in the domain aggregation screens of Martell et al. (2025).

Assay: soluble fraction after stress (log2 fold change); higher = more stays soluble; pooled small domains, quantitative proteomics
Conditions: stress: 75 degC
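Note: 20 min heating vs room temperature control held 20 min.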

Sequence | soluble fraction (log2)
HMTVGEKIQKYRKDLDLSQEELGQKLLVSRQTISLWEKDQTVPTIDNLIRLREIFGVSVDEILGF | -0.818
HMTVIARQIPPLVPRMLDGLEAFIKLDVPFEEKERLARVQMLRSSLDRDNLDTAEIFRAVLEAYNIELQY | 0.352
HMTVKKEIAKVKPTPLGWLRVRETPSLNGAEITKVNTGESYDVLDKETGWIKIKVSETVEGWVSDAYIELS | -0.319
HMTVLPTENDAKALVGLNEDEAVKIIEGNGWTYRIGSRDGEQFMLTEDYSTSRLTLGIEKSIVVTATI | -0.543
HMTVLVPNLTGKTLLEAEILLDQAGLKKGDVYSESNKNVPKDHIIRQKPAPNTKIQKGATIDIYRSLGPE | -0.0471
HMTVNLPPKQKAAILLMSLPPEVSAQLFKELGPDEVHAITLEISKLPPISPDVRAQVIDEFLHSS | -0.641
HMTVSIGSVIARERRLRGDTQQELAERLGVSKAAVSKWEVGQSIPDVTLLPRIAAYFSLTLDEL | -2.45
HMTVVLPGESLTVNIIQEGKELGQGVGYLDDGTMVVIEDGRRYIDQTIEVTVTRVLQTVAGRMIFAQLT | -4.46
HMTWDSFIGYTVTDVQKGYLGEITDVDETTINVLLRVDHKGEELLIPAVEELITEADHEARSLTVSLPEGL | -0.398
HMTYFIADLIGLQVYTDSGELLGKVDDIYNSGSADIYVVKDELGKQILLPGIKDVIKQIDVDNEKIIVHLI | -1.24
HMTYIQSNLKFLRNKMNISQEELAKRLFVTHQTVSNHENGKSQPNFEMIEKYASFFNVPFEDLIHKDLSL | -0.68
HMTYNIPEHYQTIDVKEYVRKLVSDGDSDQIGRVEMELTEFETRNLFPVLKVLIYIIDTMRK | -3
HMTYQTVRYGSTGSAVRQLQSALNQKGYQLSEDGIFGAKTRAAVRDYQKKNGLLLDGIAGSQTWNHLMS | -0.179
HMTYSSESVRYRIKSLIDNETIDEILSDDKIVNILKSQGIDVARRTVAKYREAMGLASSIQRRREKKSA | -0.707
HMVAGGTVSRKLSIETGLPKRKSLIGSWLDQNSVWHNIISVRHRNGYGDGVNYGFYLRSLLTSEGNLAW | -0.0583
HMVAGHLQTKKGYYYIVLNMRTDTGARKTKWIATGIPEGGKKNLKQAEELLAKTRYTYEDMVI | -2.52
HMVAPKTEEQQKMFLESIVTKRQAETLIEKYPNIVQDIIDGTDNVDLANLKGIGEHTYNLIKEKVLSNY | 0.546
HMVAPPILNITTHIFAEEADLRMVMINGVTRREGDSLGENHRLLEITERGLILIFHNKQYTLDV | -4.32
HMVAQEVPYSTFVMRLDRNEVDAVKIIDGNEIEGTFKSPNGDLVQFKTLIPYQDTELMPLLKQKGVRISGS | 0.427
HMVARPVLQIGSTGADVTAIQARLGVSQTGYFGVLTAAAVTNFQRSNGIAASGKVGATTWAKLMQSA | -2.37
HMVAVSQEEATKMALERVSGASAQDIRIQLEFDDGIQKYEGDIIYNGREYEFEIDANTGTFLEWSEERA | -0.176
HMVDETDVPTFTDMTLEEAQNEAKQRNLKLEITESPSDKEKDTILEQDPEPGKTVASGSTVKLTVSNGEE | -0.157
HMVDFHAAYSILRIAPGASWQEIQAAYEKLNDAWREDRYPQVPFWNEKAAFKRREVEQAYEKLRKFHALRH | -2.43
HMVDFVNVVVPVKANYGGEAVVEFLDERLSEFGTEGIYRIELQGETMENPSPDYSQLKAKYHISEIVDRT | 0.0718
HMVDKDFKPLYASLERLDSTSIIEILDSNRIDYRIDQRSGALLVDADQIHQARLSLASAGMPA | -0.263
HMVDLANIDPIASSIKLNGAEADASFNTLEDRRVSVSGSFEENKNYTMEYTFKDYAGGSVTGTLDFKTLA | 0.36

Sequence | soluble fraction (log2)
HMVDLAPTEEIIKNLPNNSRSLLIPTLQKIQNAYRYLPSPAMELLSEFLNVTRAEIYGVISFYPSLL | 0.173
HMVDLLDETLIEFYAFANNLIKDLETNSEKYGGMSQFEKELIFNEQITQYQRKLKIDLQDEVG | -1.8
HMVDPRLRSLTPQERRILEHIAEGLTNRQIAEDMFLAEKTVKNYVTSILDKLGMDSRTQAAVYAATHPT | -0.483
HMVDSTDLIPLLIKVSREKQGNKKLNWGEWLKIPENIYLKQINENIARKVFEDTNDLIDEAVNYINRKRRN | -0.963
HMVDTEVFSRLLRKVLAGDVTSAIRILEELIVGGRELSQFVGDFTWYMRNLLLVKTSDNPEEA | -0.463
HMVDYYEILGVSPDASRKDIENAWRKKMREAHPDMGGSEDKAQLLNEAHKVLSDESARAEYDASR | 0.181
HMVELPDLIGKSKRLAFTQLEISGLKIGKIIYEPDLAKDAVLKILYNGKIVKAGEQLPRFATVDLVLG | -2.11
HMVEMIGLQMVGKSGIASTVLRPSGKVRIDGVVYDAVSEDGFIEKGQAVKVLRYETGQVYVEKL | -0.727
HMVEPIEESISQLSLLLQSLYEDGKSEVSFEELIRSDRSRVSLFLALLFMAQRGNVYLEQEELFGDLRVKN | 0.0329
HMVEREYRLEVPPEAEGKRLDQFLVNQPVQLSRSQVQHLIQNGLVLVNAKTRRSSYRVHTGDIIEMQVPA | 0.121
HMVERQVTVPNLTGLGVADAQRLAQSMELDIEVLGEQESTDARPGAVLQQTPGAGTRAAAGSVVSVLV | 0.201
HMVEVPEQLRDLLERSIEDLAELSVRSRNSLQKENIQTLGDLVQRTEEEMLGIENFGKKSLTEIAAFL | -0.217
HMVEYFDDENLDAFIGRESDSYTEKEIEQFREILYTMNQKEVADWNRSLTIRGINIPNDLKDEMIMMI | -0.225
HMVEYIENINLSEKQKFIAHEILKEIRGRAIFLRDVGLDYLNLSRKAGTLSGGEAQRIRLATQIGSA | 0.198
HMVFKSAQEGLDFYSKQLNDVDATLGRIRRGEESGNGLYGSNRVKNLEEQRKKLDSFVTAYRNAVNAT | 0.0212
HMVFTEEEMLEKIKEYLSTNSYINRRAMETLFNLRQSTALKWLGHFTEIGVLRKEGERNYPVYFLNN | -0.972
HMVGADTISDLISQRGRMIGDKPITNAVIKSGSEFSTINALSKAIASGDARTNDVEGMKPVFR | -0.126
HMVGKGASIILDRVNLPQYLEKFNEDGFDTIESLKNLNEIDLKEMGVKKGHIRVILNYLHEEY | -0.421
HMVGLKWYDTGNKKPPIGTEYKNTELSEALKGHDRKEFTWKELDVLGVNITDKEQYIVVGENYYTQV | 0.0506
HMVGPAHIGLAVAKDQLPHWERHLTANGVEIEGRMRWDHGGESIYFRDPDAHLLELVTPGIWAN | 0.0383
HMVGVDMTVKEEVGKEGVTFTDLRPAGKVEIGNDIYDAVSNTGAFIQKGEKVKIIKYQAGQVYVEKLV | 0.00838
HMVIANADVRAKFSKGKDSFVKYYFKEKVLKDGFTEEVKNNIVQALFYLQIVTRIDGESGVLIIDY | 0.123
HMVIDETVLIDLFERLAEDDRPQRVAFRYILALVLLRKRTLQLIGREDEDDGEIWLLRFKGTDGEPIRV | -0.463
HMVIGKHSGSHTLVNDLAKRGITLDKEESATLLEMVRKAAVGLHRSISSDELYGLYKDMKSGQDPFEDS | 0.139
HMVINVKEILERIKLVKGFHTQIEIARFLGVSKGTISNWLARNSVDFPLVISKLDGVDLNWLFTGIGMPQ | -3.77
HMVISNDEFEDYLNRATEQLVSELSSGKNPRDAVHDLALTFADQHNKSYDAYQRMADSLEARMHTL | 0.0871

Sequence | soluble fraction (log2)
HMVITEQTVTVKYLYEDDTEAAPEHSETHKTGETFEIESPKIDGFTPDYELITGTIANDDLVYIVRYKTTP | -0.487
HMVITQVSTTQTDTTFQYHKVKPKETLFSISRLYEVSIDEIKTINPALNSRELMAGELLKLPIK | -1.4
HMVKGIVPNLIGKTQDEAKQMAEEYGFSIGTVSEKASDKPKGTVIEQSPKAGAKASGVTSINIVVSDGS | -0.121
HMVKKYEKVKEYLLERILDGTYVPDLPIPPERELASLLDVNRMTVRRAVEELMYDGYLIRKKGSGTYLTR | -1.6
HMVKLSVGDIVQFAGGPHYVSSSAAKPASSPTAGPAKVTMIYQGAKHPYHIVHTTSASTVWGWVDADKVVK | 0.0767
HMVKNLRKLREELGLTQQRLAELTGISKSRIYSYESLDREPDIAGLITLADFFSVSIDYLVGK | -2.66
HMVKPKIILADIGMITETDVTLAKASQAVLIAFNVKPSKEAKKLAEDENIKISTYNIIYEVLDFVKKSMSG | 0.304
HMVLALRGIVQGGAEPLVILSDGRTSQSLAVGERFLAYEVVEIGRTGVRLRGPEGEIWLAMASF | -1.2
HMVLANLQAAEQGDLGIKEGEKLTILQTRPDGWWTARNANGETGLVPK | 0.186
HMVLFDLSEREKEVLKLLADGNSYKMIASRLEITYFTVNAHLKKIYEKLQVHSASEAVSVALRNSL | -1.19
HMVLIQNEDVKDISNYPLLSSVPVFDVFNNKMIIPTFNKDSFNPLIYNFNFNSKRRLIYRVDNTNYLIVIK | 0.0494
HMVLMPIDALRGSSSSSEMRIAAVKFSPSKGWYFSLQERSDEGSSYYEQKVASDGSVSERVKVR | -0.58
HMVLNVMIEEEVHREIIAAISKLPKERRRVVELSMAGFSQEEIAEKMAISVNTVKTIKLRAYRVLRERLKG | -3.78
HMVLPELRLQGLPTAVLRLINRATALADDYRRLMEIAEDGRIDEWEAPEFERISENIQRVIAAGFEVL | 0.0637
HMVLQHHTATKALSYHTSASASAAVKGSFARGDSVQVVQGGSQTADGAKWHKVKVGSSYYYAAAEHLTP | ≥ 1.04
HMVLTYYSVLGVKTDATTEEIKSTYKQLAIRNHPDRGGSEEVMKMINLAAEILSDPKSRKEYDLSLDA | -2.06
HMVLVLPGEMIHVQVIDEGKEMGQGVGYLDDGTMVVVENGLRHIGRAIDVQVTKVLQTNAGRMIFGQPIL | -1.71
HMVMAELRISVDRLQIGNYIKLPLSWRDHPFLLSSFMIKKEEQIQLIRQLRLKHVFIIPEKSDAPPKPA | -4.2
HMVMNYKKIGKKIADRRILLGITQEELAEKVDSSANYISNIETGIKSGSLIFYIKVANELKLSLDFLFSDE | -3.09
HMVMPTGRVRYYDAEKGFGFLSKDSGGDDVYVRSSALPAGVTSLKRGQKVEFGIIDGKRGEQALSVHLL | -0.202
HMVMTTVPEVLGMDIRTAASMLTGKNLKYDYDLVESDKPKDEVIEQDQAKGTEVPEGTVVKLKVSKGPA | 0.143
HMVMTTVPEVLGMDISKAASLLTGKNLDYDYDLVESDKPKDQVIEQDVVKGTEVPEGTVIHLKVSKGPA | 0.258
HMVMVVDVLKALSNNSSDKFFNTSISNAIKAQEDSQEDFVTLFGIEYEKLSPNNGLAVIFTSQ | 0.865
HMVNDDTIAATEAEILALLADKHRHHITELNSIRRPYEQIDAALSSLINEEKIFQEDGMLFV | 0.543
HMVNGEFIDRIKVILQENNATRKKDRLTKTRMYQLLQEEGYEGSYSAFTYQVRIIEEELGINNK | -2.31
